# Measurements reported in patent publication US20100248359A1 (Chugai, published 2010).
# Residue numbers refer to the chain shown, from its start. Names and notes keep the numbering of the source. Like-named read-outs stand apart in the source and are kept apart here.
# T1: GC-3 (GST fusion of GPC3 Ala524 to Lys563) (human, UniProt P51654 524-563)
# T1 construct: not shown: GST as encoded by pGEX-4T-3 (Amersham), N-terminal to the GPC3 peptide
# T1 chain: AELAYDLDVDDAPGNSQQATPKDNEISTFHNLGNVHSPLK
# B1: GC33 mouse-human chimeric antibody (antibody, V domains shown)
# VH: QVQLQQSGAELVRPGASVKLSCKASGYTFTDYEMHWVKQTPVHGLKWIGALDPKTGDTAYSQKFKGKATLTADKSSSTAYMELRSLTSEDSAVYYCTRFYSYTYWGQGTLVTVSA
# VL: DVVMTQTPLSLPVSLGDQASISCRSSQSLVHSNGNTYLHWYLQKPGQSPKLLIYKVSNRFSGVPDRFSGSGSGTDFTLKISRVEAEDLGVYFCSQNTHVPPTFGSGTKLEIK
# notes: also called chimeric antibody GC33; mouse/mouse
# B2: humanized GC33 H chain ver.f / L chain ver.a (antibody, V domains shown)
# VH: QVQLVESGAEVKKPGASVKVSCKASGYTFTDYEMHWVRQAPGQGLEWMGALDPKTGDTAYSQKFKGRVTLTADKSTSTAYMELSSLRSEDTAVYYCTRFYSYTYWGQGTLVTVSS
# VL: B1 VL with T7S, S14T, L15P, D17E, Q18P, K50Q, L88V, F92Y, S105Q
# B3: humanized GC33 ver.a/ver.a (antibody, V domains shown)
# VH: B2 VH with L70I, K74E, T97A
# VL: B1 VL with T7S, S14T, L15P, D17E, Q18P, K50Q, L88V, F92Y, S105Q
# notes: Human IgG (HEFg gamma1 vector) and human kappa constant regions
# B4: modified humanized GC33 (H chain ver.k, L chain G34Q) (antibody, human IgG1, V domains shown)
# VH: B2 VH with E6Q, R87T
# VL: B1 VL with T7S, S14T, L15P, D17E, Q18P, G34Q, K50Q, L88V, F92Y, S105Q
# notes: COS7 supernatant; human IgG1/kappa
# B5: modified humanized GC33 (H chain ver.k, L chain G34H) (antibody, human IgG1, V domains shown)
# VH: B2 VH with E6Q, R87T
# VL: B1 VL with T7S, S14T, L15P, D17E, Q18P, G34H, K50Q, L88V, F92Y, S105Q
# notes: as for B4
# B6: humanized GC33 H chain ver.i / L chain ver.a (antibody, V domains shown)
# VH: B2 VH with E6Q, K74E
# VL: B1 VL with T7S, S14T, L15P, D17E, Q18P, K50Q, L88V, F92Y, S105Q
# B7: humanized GC33 H chain ver.h / L chain ver.a (antibody, V domains shown)
# VH: B2 VH with R87T
# VL: B1 VL with T7S, S14T, L15P, D17E, Q18P, K50Q, L88V, F92Y, S105Q
# B8: modified humanized GC33 (H chain ver.k, L chain G34E) (antibody, human IgG1, V domains shown)
# VH: B2 VH with E6Q, R87T
# VL: B1 VL with T7S, S14T, L15P, D17E, Q18P, G34E, K50Q, L88V, F92Y, S105Q
# notes: as for B4
# B9: modified humanized GC33 (H chain ver.k, L chain G34N) (antibody, human IgG1, V domains shown)
# VH: B2 VH with E6Q, R87T
# VL: B1 VL with T7S, S14T, L15P, D17E, Q18P, G34N, K50Q, L88V, F92Y, S105Q
# notes: as for B4
# B10: humanized GC33 H chain ver.c / L chain ver.a (antibody, V domains shown)
# VH: B2 VH with K74E
# VL: B1 VL with T7S, S14T, L15P, D17E, Q18P, K50Q, L88V, F92Y, S105Q
# B11: G34P (antibody, V domains shown)
# VH: B2 VH with E6Q, R87T
# VL: B1 VL with T7S, S14T, L15P, D17E, Q18P, G34P, K50Q, L88V, F92Y, S105Q
# notes: also called modified humanized GC33 (H chain ver.k, L chain G34P)
# B12: GC33 mouse H chain variable region / humanized L chain ver.a (antibody, V domains shown)
# VH: B1 VH
# VL: B1 VL with T7S, S14T, L15P, D17E, Q18P, K50Q, L88V, F92Y, S105Q
# notes: also called mouse/ver.a
# B13: modified humanized GC33 (H chain ver.k, L chain G34F) (antibody, human IgG1, V domains shown)
# VH: B2 VH with E6Q, R87T
# VL: B1 VL with T7S, S14T, L15P, D17E, Q18P, G34F, K50Q, L88V, F92Y, S105Q
# notes: as for B4
# B14: G34V (antibody, V domains shown)
# VH: B2 VH with E6Q, R87T
# VL: B1 VL with T7S, S14T, L15P, D17E, Q18P, G34V, K50Q, L88V, F92Y, S105Q
# notes: also called modified humanized GC33 (H chain ver.k, L chain G34V)
# B15: M10D2 (antibody, V domains shown)
# VH: QVQLQQPGAELVKPGASVKLSCKASGYTFTSYWMHWVKQRPGQGLEWIGEIDPSDSYTYYNQKFRGKATLTVDKSSNTAYMQLSSLTSEDSAVYYCSRSNLGDGHYRFPAFPYWGQGTLVTVSA
# VL: DIVLTQSPATLSVTPGDRVSLSCRASHSISNFLHWYPQKSHESPRLLIKYASQSISGIPSRFSGNGSGTDFTLSINSVETEDFGMYFCQQSNIWSLTFGAGTKLELK
# notes: Mouse monoclonal from hybridoma
# B16: M3C11 (antibody, human IgG1, kappa, V domains shown)
# VH: EVQLVESGGGLVKPGGSLKLSCAASGFTFSRYAMSWVRQIPEKILEWVAAIDSSGGDTYYLDTVKDRFTISRDNANNTLHLQMRSLRSEDTALYYCVRQGGAYWGQGTLVTVSA
# VL: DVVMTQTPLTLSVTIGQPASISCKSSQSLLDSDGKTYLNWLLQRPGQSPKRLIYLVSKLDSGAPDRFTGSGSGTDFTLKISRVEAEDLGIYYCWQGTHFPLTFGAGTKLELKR
# notes: as for B15
# B17: GC194 (antibody, V domains shown)
# VH: EVQLVETGGGLVQPKGSLKLSCAASGFTFNASAMNWVRQAPGKGLEWVARIRSKSNNYAIYYADSVKDRFTISRDDSQSMLYLQMNNLKTEDTAMYYCVRDPGYYGNPWFAYWGQGTLVTVSA
# VL: DIVMTQAAFSNPVTLGTSASISCRSSKSLLHSYDITYLYWYLQKPGQSPQLLIYQMSNLASGVPDRFSSSGSGTDFTLRISRVEAEDVGVYYCAQNLELPPTFGGGTKLEIK
# Key:
# [1] = molecular target: T2, soluble form of GPC3 core protein (human, UniProt P51654 25-563); experiment: ELISA on GPC3 (the legend says only GPC3; the filing's ELISA uses plates coated with soluble GPC3 core protein) [upper panel]
# T2 construct: not shown: His tag added to the C-terminus
# Target sequence in this assay (P51654 25-563 S495A/S509A, form in doubt): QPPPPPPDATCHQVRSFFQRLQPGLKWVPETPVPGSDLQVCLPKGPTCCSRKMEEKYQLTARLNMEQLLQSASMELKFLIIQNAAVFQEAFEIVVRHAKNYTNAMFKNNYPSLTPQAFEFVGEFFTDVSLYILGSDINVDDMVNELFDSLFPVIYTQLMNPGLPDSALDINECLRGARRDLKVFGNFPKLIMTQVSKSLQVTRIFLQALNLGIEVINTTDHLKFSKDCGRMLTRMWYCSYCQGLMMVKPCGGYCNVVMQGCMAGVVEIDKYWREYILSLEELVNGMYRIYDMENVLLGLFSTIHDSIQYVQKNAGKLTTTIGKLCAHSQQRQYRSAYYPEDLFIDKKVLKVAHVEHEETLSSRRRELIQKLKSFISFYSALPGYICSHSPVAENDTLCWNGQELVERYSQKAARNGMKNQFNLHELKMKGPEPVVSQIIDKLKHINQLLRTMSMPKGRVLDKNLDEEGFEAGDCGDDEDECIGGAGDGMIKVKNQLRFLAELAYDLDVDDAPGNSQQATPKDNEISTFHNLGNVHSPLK
# [2] = molecular target: T2, soluble form of GPC3 core protein; experiment: ELISA on plate coated with soluble GPC3 core protein; antibody from COS7 culture supernatant [middle left panel]
# Target sequence in this assay (P51654 25-563 S495A/S509A, form in doubt): as above
# Description: (§1) It was introduced into a COS7 cell using Fugene 6 (Roche) together with HEFgγ1, in which a humanized GC33H chain ver.k had been cloned. The antibody transiently expressed in the cell was recovered from the culture supernatant. The concentration of antibody was determined by a sandwich ELISA using the anti-human IgG antibody. The binding activity of the modified antibody was evaluated by an ELISA using an immunoplate coated with the soluble form of GPC3 core protein.
# (§2) These antibodies were transiently expressed in COS7 cells, and the binding activity was evaluated using the culture supernatant.
# [3] = molecular target: T2, soluble form of GPC3 core protein; experiment: ELISA on plate coated with soluble GPC3 core protein; antibody from COS7 culture supernatant [upper right panel]
# Description: as §1, §2
# [4] = molecular target: T2, soluble form of GPC3 core protein; experiment: ELISA on GPC3 (the legend says only GPC3; the filing's ELISA uses plates coated with soluble GPC3 core protein) [lower panel]
# [5] = molecular target: T2, soluble form of GPC3 core protein; experiment: ELISA on plate coated with soluble GPC3 core protein; antibody from COS7 culture supernatant [lower left panel]
# Target sequence in this assay (P51654 25-563 S495A/S509A, form in doubt): as above
# Description: as §1, §2
# [6] = molecular target: T2, soluble form of GPC3 core protein; experiment: competitive ELISA on coated soluble GPC3 core protein; labelled competitor biotin-L9G11;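 further: Biotin-labelled antibody added as 10 µL at 10 µg/mL for 1 h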
# [7] = molecular target: T2, soluble form of GPC3 core protein; experiment: competitive ELISA on coated soluble GPC3 core protein; labelled competitor biotin-M18D4;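 further: Biotin-labelled antibody added as 10 µL at 10 µg/mL for 1 h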
# [8] = molecular target: T2, soluble form of GPC3 core protein; experiment: ELISA on plate coated with soluble GPC3 core protein
# Description: (§3) In order to conveniently evaluate the binding activity of the anti-GPC3 antibody thus obtained, concentration-dependent binding of the antibody was detected against an immunoplate containing the soluble form of GPC3 core protein immobilized thereon. A 3-fold dilution series (12 dilutions in total) of the purified antibody at a concentration of 10 μg/mL was added, and an anti-mouse IgG antibody was added as the secondary antibody. […] Since the degree of color development varies depending on the color development time, data measured precisely after 1 hour was analyzed. […] The correlation between the concentration of antibody and the degree of color development was plotted and an approximate curve was obtained by using an analyzing software, GraphPad Prism. Its EC50 value was determined as the index of the binding activity.
# full-length human GPC3 [9] = molecular target: T3, full-length human GPC3 (human, UniProt P51654 25-554); experiment: flow cytometry, antibody at 5 µg/mL, HuH-7 cells
# T3 construct: On CHO (DXB11) or SK-HEP-1 (SK-03) transfectants; also used here for the GPC3 on the hepatoma lines HepG2 and HuH-7; also called human glypican 3
# T3 sequence (P51654 25-554 limits assumed): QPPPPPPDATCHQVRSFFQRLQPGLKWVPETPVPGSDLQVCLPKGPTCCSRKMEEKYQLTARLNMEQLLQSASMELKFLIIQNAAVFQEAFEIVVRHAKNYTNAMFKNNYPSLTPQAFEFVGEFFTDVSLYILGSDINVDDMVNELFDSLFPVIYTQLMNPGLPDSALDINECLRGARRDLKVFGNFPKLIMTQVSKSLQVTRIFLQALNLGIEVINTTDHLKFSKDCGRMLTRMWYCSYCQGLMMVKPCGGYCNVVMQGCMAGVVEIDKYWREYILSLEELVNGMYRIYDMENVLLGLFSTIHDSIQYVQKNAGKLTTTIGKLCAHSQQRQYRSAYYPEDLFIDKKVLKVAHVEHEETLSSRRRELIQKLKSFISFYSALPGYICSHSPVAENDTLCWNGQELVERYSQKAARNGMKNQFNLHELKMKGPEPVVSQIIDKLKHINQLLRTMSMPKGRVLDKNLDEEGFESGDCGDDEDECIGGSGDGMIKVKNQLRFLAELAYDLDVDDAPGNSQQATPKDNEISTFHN
# Description: (§4) Cells were dissociated with 1 mM EDTA pH 8.0 (GIBCO)/PBS and suspended in FACS buffer (1% FBS/PBS) at 1×10⁶ cells/mL. The suspension was dispensed to a Multiscreen-HV Filter Plate (Millipore) at 100 μL/well and the supernatant was removed by centrifugation. An anti-GPC3 antibody diluted to an appropriate concentration was added and reacted on ice for 30 minutes. The cells were washed once with FACS buffer and an FITC-labeled anti-mouse IgG antibody was added and reacted on ice for 30 minutes. After the reaction, the cells were centrifuged at 500 rpm for 1 minute, and the supernatant was removed. The cells were suspended in 400 μL of FACS buffer and subjected to flow cytometry. EPICS ELITE ESP (Beckman Coulter) was used as a flow cytometer. A gate was set on the living cell population with the histogram of forward scatter and side scatter.
# [10] = molecular target: T2, soluble form of GPC3 core protein; experiment: competitive ELISA on coated soluble GPC3 core protein; labelled competitor biotin-M1E7;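 further: Biotin-labelled antibody added as 10 µL at 10 µg/mL for 1 h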
# Description: (§5) The antibodies were biotinylated using a Biotin Labeling Kit (Roche). The soluble form of GPC3 core protein was diluted to 1 μg/mL with the coating buffer and added to a plate at 100 μL/well and stored at 4° C. overnight to coat the plate. On the next day, 200 μL of the substrate buffer was added for blocking. The plate was left at 4° C. overnight or longer and an anti-GPC3 antibody was added to the plate at 100 μL/well and reacted at room temperature for 1 hour. After that, without washing of the plate, 10 μL of 10 μg/mL biotin-labeled anti-GPC3 antibody was added and further reacted for 1 hour. The plate was washed with 300 μL/well of the rinse buffer for 3 times. AP-streptavidin conjugate (ZYMED) was diluted to 1000-fold with the dilution buffer and added at 100 μL/well and reacted at room temperature for 1 hour. The plate was washed with 300 μL/well of the rinse buffer for 5 times.
# full-length human GPC3 [11] = molecular target: T3, full-length human GPC3; experiment: flow cytometry, antibody at 5 µg/mL, CHO cells expressing human GPC3 (column CHO/human GPC3)
# Description: as §4
# [12] = molecular target: T2, soluble form of GPC3 core protein; experiment: competitive ELISA on coated soluble GPC3 core protein; labelled competitor biotin-M10D2;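 further: Biotin-labelled antibody added as 10 µL at 10 µg/mL for 1 h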
# Description: as §5
# [13] = molecular target: T2, soluble form of GPC3 core protein; experiment: competitive ELISA on coated soluble GPC3 core protein; labelled competitor biotin-M3C11;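 further: Biotin-labelled antibody added as 10 µL at 10 µg/mL for 1 h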
# Description: The obtained antibodies were classified according to the epitopes by a competitive ELISA. The antibodies were biotinylated using a Biotin Labeling Kit (Roche). The soluble form of GPC3 core protein was diluted to 1 μg/mL with the coating buffer and added to a plate at 100 μL/well and stored at 4° C. overnight to coat the plate. On the next day, 200 μL of the substrate buffer was added for blocking. The plate was left at 4° C. overnight or longer and an anti-GPC3 antibody was added to the plate at 100 μL/well and reacted at room temperature for 1 hour. After that, without washing of the plate, 10 μL of 10 μg/mL biotin-labeled anti-GPC3 antibody was added and further reacted for 1 hour. The plate was washed with 300 μL/well of the rinse buffer for 3 times. AP-streptavidin conjugate (ZYMED) was diluted to 1000-fold with the dilution buffer and added at 100 μL/well and reacted at room temperature for 1 hour. The plate was washed with 300 μL/well of the rinse buffer for 5 times.
# [14] = molecular target: T2, soluble form of GPC3 core protein; experiment: competitive ELISA on coated soluble GPC3 core protein; labelled competitor biotin-M11F1;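 further: Biotin-labelled antibody added as 10 µL at 10 µg/mL for 1 h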
# Description: as §5
# [15] = molecular target: T2, soluble form of GPC3 core protein; experiment: competitive ELISA on coated soluble GPC3 core protein; labelled competitor biotin-M5B9;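 further: Biotin-labelled antibody added as 10 µL at 10 µg/mL for 1 h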
# Description: as §5
# [16] = molecular target: T2, soluble form of GPC3 core protein; experiment: competitive ELISA on coated soluble GPC3 core protein; labelled competitor biotin-M6B1;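 further: Biotin-labelled antibody added as 10 µL at 10 µg/mL for 1 h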
# Description: as §5
# full-length human GPC3 [17] = molecular target: T3, full-length human GPC3; experiment: BIACORE; the form of GPC3 used is not given
# full-length human GPC3 [18] = molecular target: T3, full-length human GPC3; experiment: flow cytometry, antibody at 5 µg/mL, HepG2 cells
# Description: as §4
# [19] = molecular target: T1, GC-3 (GST fusion of GPC3 Ala524 to …); experiment: Western blotting of GST-fusion proteins, reducing SDS-PAGE
# full-length human GPC3 [20] = molecular target: T3, full-length human GPC3; experiment: flow cytometry, antibody at 5 µg/mL, HuH-7 cells; remark: listed apart in the source
# Description: as §4
# [21] = molecular target: T2, soluble form of GPC3 core protein; experiment: ELISA on plate coated with soluble GPC3 core protein; remark: listed apart in the source
# Description: as §3
# The antibody was purified from the culture supernatant of the hybridoma using Hi Trap proteinG HP, and analyzed in accordance with the above-mentioned method.
# full-length human GPC3 [22] = molecular target: T3, full-length human GPC3; experiment: flow cytometry, antibody at 5 µg/mL, CHO cells expressing human GPC3 (column CHO/human GPC3); remark: listed apart in the source
# Description: as §4
# full-length human GPC3 [23] = molecular target: T3, full-length human GPC3; experiment: flow cytometry, antibody at 5 µg/mL, HepG2 cells; remark: listed apart in the source
# Description: as §4
binder,measurement,setting,value
B1,EC50 (read off the curve),[1],~0.01 µg/mL
B2,EC50 (read off the curve),[1],~0.01 µg/mL
B3,EC50 (read off the curve),[1],~0.1 µg/mL
B4,EC50 (read off the curve),[2],~0.02 µg/mL
B5,EC50 (read off the curve),[3],~0.02 µg/mL
B6,EC50 (read off the curve),[4],~0.03 µg/mL
B7,EC50 (read off the curve),[4],~0.03 µg/mL
B8,EC50 (read off the curve),[3],~0.02 µg/mL
B9,EC50 (read off the curve),[2],~0.02 µg/mL
B10,EC50 (read off the curve),[1],~0.01 µg/mL
B11,EC50 (read off the curve),[2],~0.03 µg/mL
B12,EC50 (read off the curve),[4],~0.03 µg/mL
B13,EC50 (read off the curve),[3],~0.02 µg/mL
B14,EC50 (read off the curve),[5],~0.02 µg/mL
B15,Inhibition of the binding of indicated biotin-Mab to sGPC3 core (%),[6],7.2%
same,Inhibition of the binding of indicated biotin-Mab to sGPC3 core (%),[7],-21.6%
same,EC50,[8],1.04 nM
same,FACS X-mode value of the histogram,full-length human GPC3 [9],3
same,Inhibition of the binding of indicated biotin-Mab to sGPC3 core (%),[10],0.6%
same,FACS X-mode value of the histogram,full-length human GPC3 [11],20
same,Inhibition of the binding of indicated biotin-Mab to sGPC3 core (%),[12],79.2%
same,Inhibition of the binding of indicated biotin-Mab to sGPC3 core (%),[13],-7.7%
same,Inhibition of the binding of indicated biotin-Mab to sGPC3 core (%),[14],7.8%
same,Inhibition of the binding of indicated biotin-Mab to sGPC3 core (%),[15],-10.3%
same,Inhibition of the binding of indicated biotin-Mab to sGPC3 core (%),[16],-5.9%
same,Kd,full-length human GPC3 [17],4.7 nM
same,koff,full-length human GPC3 [17],0.000496 s⁻¹
same,kon,full-length human GPC3 [17],110000 M⁻¹ s⁻¹
same,FACS X-mode value of the histogram,full-length human GPC3 [18],29
B16,Inhibition of the binding of indicated biotin-Mab to sGPC3 core (%),[6],33.1%
same,Inhibition of the binding of indicated biotin-Mab to sGPC3 core (%),[7],10.3%
same,EC50,[8],0.12 nM
same,binding result,[19],no binding
same,FACS X-mode value of the histogram,full-length human GPC3 [9],9
same,Inhibition of the binding of indicated biotin-Mab to sGPC3 core (%),[10],96.2%
same,FACS X-mode value of the histogram,full-length human GPC3 [11],83
same,Inhibition of the binding of indicated biotin-Mab to sGPC3 core (%),[12],39.9%
same,Inhibition of the binding of indicated biotin-Mab to sGPC3 core (%),[13],96.8%
same,Inhibition of the binding of indicated biotin-Mab to sGPC3 core (%),[14],12%
same,Inhibition of the binding of indicated biotin-Mab to sGPC3 core (%),[15],9.1%
same,Inhibition of the binding of indicated biotin-Mab to sGPC3 core (%),[16],11.2%
same,Kd,full-length human GPC3 [17],0.3 nM
same,koff,full-length human GPC3 [17],6.5e-05 s⁻¹
same,kon,full-length human GPC3 [17],250000 M⁻¹ s⁻¹
same,FACS X-mode value of the histogram,full-length human GPC3 [18],59
B17,FACS X-mode value of the histogram,full-length human GPC3 [20],1.5
same,EC50,[21],3.83 nM
same,FACS X-mode value of the histogram,full-length human GPC3 [22],5
same,FACS X-mode value of the histogram,full-length human GPC3 [23],7.9
